{"source": "paper PMC6860931", "about": "“Role of the malic enzyme in metabolism of the halotolerant methanotroph Methylotuvimicrobium alcaliphilum 20Z” (PLoS ONE, 2019)", "key": {"purified protein [1]": {"substrate": "NC(=O)c1ccc[n+]([C@@H]2O[C@H](COP(=O)(O)OP(=O)(O)OC[C@H]3O[C@@H](n4cnc5c(N)ncnc54)[C@H](O)[C@@H]3O)[C@@H](O)[C@H]2O)c1", "assay": "purified protein", "format": "biochemical, Methylotuvimicrobium alcaliphilum", "conditions": "malate as co-substrate, assay mixture 10 mM malate, 2.5 mM MgCl2, 50 mM Tris-HCl, pH 9.0, 30°C, varied: cofactor"}, "purified protein [2]": {"substrate": "O=C(O)C[C@H](O)C(=O)O", "assay": "purified protein", "conditions": "NAD+ as co-substrate, assay mixture 0.3 mM NAD+, 2.5 mM MgCl2, 50 mM Tris-HCl, pH 9.0, 30°C"}}, "data": [{"protein": "Mae (malic enzyme from Mtm. alcaliphilum 20Z) (Methylotuvimicrobium alcaliphilum 20Z) (protein, full-length, 1689 bp gene, pET22b(+) NdeI/XhoI, His6-tagged, E. coli BL21 (DE3), Ni-NTA) MTAMSKTPLYIPYAGPALLEMPLLNKGCAFSKEERQTFNLTGLLPPRYETIEEQVQRAYLQYSSFRNAINKHIYLRSIQDNNETLFYRLLQDHLPEMLPIIYTPTVGDACEQFSDIYRSSRGLFISYVDRQQIDDILRNTTKRNVKIIVVTDGERVLGLGDQGIGGMGISIGKLSLYTACGGISPAYTLPVVLDVGTNNEKLLQDPMYMGERHRRIPQAEYDAFIDFFLQAVKRRWPDVIVQFEDFAQPNAMPILQRYRDQLCCFNDDIQGTAAVTVGTLLAACRVKNRKLSEQRVVFVGAGSAGCGIAEQVIAQMRTEGLSDREARHRVYMVDRFGLLTESMTGLRDFQQKLVQVSNRLEDWSIESDYPSLLEVIQYAKPTVLIGVSGQHGIFTETVIRTMTQGCDWPIIFPLSNPPRQVEATPEQIIEWTEGRVLLAAGSPFPPVEYGGKRYDVTQCNNSYIFPGIGLGVIAVQARRISDEMLIAASETLAAASPLANTGQGELLPPLTELPELSKRIAFAVGKVALKQNLALEISDEQLLKSIEENFWQPVYRHYKRVCF", "values": [{"measurement": "Km", "setting": "purified protein [1]", "value": "57 ± 5", "unit": "µM"}, {"measurement": "Km", "setting": "purified protein [2]", "value": "5500 ± 800", "unit": "µM"}]}]}
